For one assay, the target named is rituximab-Fab (human). Briefly: NMR titration; 1H-15N HSQC peak intensity attenuation of the 15N-labeled protein (rituximab-Fc 120 μM, rituximab-Fab 240 μM, sFcγRIIIb 120 μM) on adding serum polyclonal IgG 120 μM, its Fab 240 μM or HSA 600 μM; 5 mM sodium phosphate, 50 mM NaCl, pH 7.4, 37°C.
In assay [1] the target is soluble form of human FcγRIIIb (NA2 form) composed of the extracellular domains (human) (UniProt O75015). Described as above.
Assay [2] addresses extracellular region of human FcγRIIIa (158V allele), bis-glycosylated (human) (UniProt P08637).

This is an account of results in publication PMC9905677.

UniProt O75015, sequence (O75015 17-200): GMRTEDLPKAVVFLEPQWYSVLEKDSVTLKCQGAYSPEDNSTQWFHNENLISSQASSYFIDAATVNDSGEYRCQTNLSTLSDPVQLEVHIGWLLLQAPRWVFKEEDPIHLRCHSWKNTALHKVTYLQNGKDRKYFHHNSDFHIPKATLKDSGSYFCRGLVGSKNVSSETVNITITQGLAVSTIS

As for “human serum albumin (from UniProt P02768 25-609) (natural protein)”, the average level of HSQC peak intensity attenuation (Io-Ip)/Io with rituximab-Fab (human) came out at 0.6; in assay [1], 0.41.

Turning to rituximab (antibody), in assay [2], the EC50 of the ADCC reporter assay (Jurkat/FcγRIIIa/NFAT-Luc effector cells, luciferase) turned out to be 0.02 µg/mL.
